These are literature values, as cited in article PMC5477003.

By Kd is commonly meant the equilibrium constant for the complex coming apart.

For the series, the target named is integrin αIIbβ3 (Homo sapiens) (UniProt P08514).

For the substance CD40L (from UniProt P29965), the dissociation constant (Kd) is 30 nM.
